Results on 1 molecule are retold here after paper PMC7925594 (Nature Communications, 2021).

Assay [1] addresses T1, linear tetra-ubiquitin (UniProt P0CG48 1-76; P0CG48 1-76; P0CG48 1-76; P0CG48 1-76).
T1 construct: ubiquitin, unit 1 of 4; ubiquitin, unit 2 of 4; ubiquitin, unit 3 of 4; ubiquitin, unit 4 of 4; also called linear tetra-ubiquitin chains; source: bought: LifeSensors (recombinant)
Description: co-IP; purified recombinant HA-N4BP1 or domain deletion forms incubated with ubiquitin chains in assay buffer (50 mM Tris-HCl pH 7.4, 150 mM NaCl, 1 mM dithiothreitol) for 2 h at 4 °C; immunoprecipitation with anti-HA (mouse IgG as control); immunoblot. Particulars: both partners purified. In general terms: Immunoblotting shows a protein as a band on a membrane.

In assay [2] the target is T2, linear hepta-ubiquitin (UniProt P0CG48 1-76; P0CG48 1-76; P0CG48 1-76; P0CG48 1-76; P0CG48 1-76; P0CG48 1-76; …).
T2 construct: ubiquitin, unit 1 of 7; ubiquitin, unit 2 of 7; ubiquitin, unit 3 of 7; ubiquitin, unit 4 of 7; ubiquitin, unit 5 of 7; ubiquitin, unit 6 of 7; ubiquitin, unit 7 of 7; The reagents name a supplier only for the tetra-ubiquitins; also called linear ubiquitin chains; linear polyubiquitin chains
The description is as above. Particulars: both partners purified.

T2 sequence (P0CG48 1-532, one chain of several): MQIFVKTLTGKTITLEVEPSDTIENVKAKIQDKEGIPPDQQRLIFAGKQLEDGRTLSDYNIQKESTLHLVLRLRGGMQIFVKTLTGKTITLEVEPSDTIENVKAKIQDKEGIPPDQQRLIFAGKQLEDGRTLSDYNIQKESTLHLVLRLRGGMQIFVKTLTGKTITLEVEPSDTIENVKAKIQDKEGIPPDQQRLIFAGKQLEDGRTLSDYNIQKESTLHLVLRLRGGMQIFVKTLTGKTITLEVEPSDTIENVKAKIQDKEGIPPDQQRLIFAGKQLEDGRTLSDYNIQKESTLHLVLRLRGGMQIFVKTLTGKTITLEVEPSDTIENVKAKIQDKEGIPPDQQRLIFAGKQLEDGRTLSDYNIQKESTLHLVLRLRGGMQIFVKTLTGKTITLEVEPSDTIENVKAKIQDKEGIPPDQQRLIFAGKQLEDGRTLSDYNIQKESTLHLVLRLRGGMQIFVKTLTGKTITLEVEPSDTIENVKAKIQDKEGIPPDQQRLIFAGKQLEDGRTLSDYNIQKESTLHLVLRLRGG
T1 sequence (P0CG48 1-304, one chain of several): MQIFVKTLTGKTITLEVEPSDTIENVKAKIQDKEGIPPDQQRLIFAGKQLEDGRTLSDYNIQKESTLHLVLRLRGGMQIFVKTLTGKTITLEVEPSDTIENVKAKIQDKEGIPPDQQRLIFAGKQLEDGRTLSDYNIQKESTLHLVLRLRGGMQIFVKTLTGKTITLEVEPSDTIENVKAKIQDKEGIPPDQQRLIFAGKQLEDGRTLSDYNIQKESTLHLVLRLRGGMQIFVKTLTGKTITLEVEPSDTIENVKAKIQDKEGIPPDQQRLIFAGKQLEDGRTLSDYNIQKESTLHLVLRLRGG

B1: HA-tagged N4BP1 (full-length) (natural protein, UniProt O75113 1-896, looked up)
chain: MAARAVLDEFTAPAEKAELLEQSRGRIEGLFGVSLAVLGALGAEEPLPARIWLQLCGAQEAVHSAKEYIKGICEPELEERECYPKDMHCIFVGAESLFLKSLIQDTCADLCILDIGLLGIRGSAEAVVMARSHIQQFVKLFENKENLPSSQKESEVKREFKQFVEAHADNYTMDLLILPTSLKKELLTLTQGEENLFETGDDEVIEMRDSQQTEFTQNAATGLNISRDETVLQEEARNKAGTPVSELTKQMDTVLSSSPDVLFDPINGLTPDEEALSNERICQKRRFSDSEERHTKKQFSLENVQEGEILHDAKTLAGNVIADLSDSSADSENLSPDIKETTEEMEYNILVNFFKTMGYSQEIVEKVIKVYGPSTEPLLLLEEIEKENKRFQEDREFSAGTVYPETNKTKNKGVYSSTNELTTDSTPKKTQAHTQQNMVEKFSQLPFKVEAKPCTSNCRINTFRTVPIEQKHEVWGSNQNYICNTDPETDGLSPSVASPSPKEVNFVSRGASSHQPRVPLFPENGLHQQPEPLLPNNMKSACEKRLGCCSSPHSKPNCSTLSPPMPLPQLLPSVTDARSAGPSDHIDSSVTGVQRFRDTLKIPYKLELKNEPGRTDLKHIVIDGSNVAITHGLKKFFSCRGIAIAVEYFWKLGNRNITVFVPQWRTRRDPNVTEQHFLTQLQELGILSLTPARMVFGERIASHDDRFLLHLADKTGGIIVTNDNFREFVNESVSWREIITKRLLQYTFVGDIFMVPDDPLGRSGPRLEEFLQKEVCLRDMQPLLSALPNVGMFDPSFRVPGTQAASTSHQPPTRIQGAPSSHWLPQQPHFPLLPALPSLQQNLPMPAQRSSAETNELREALLKIFPDSEQRLKIDQILVAHPYMKDLNALSAMVLD
notes: the vector of the other experiments is only called a mammalian expression vector; also called HA-N4BP1; F.L; source: HEK293T or N4BP1-/- HEK293T, transfected, in lysate; also overexpressed in HEK293T and purified (immunoprecipitation, HA peptide elution, Superdex 200 gel filtration); not shown: HA, N-terminal, kept
As for B1, the binding result in assay [1] and in assay [2] was “binds” each time.
